Results as given in US20250313621A1 (NXERA PHARMA UK, published 2025).

T1: Soluble PAR2 StaR (recombinant human PAR2 StaR protein in detergent, construct not stated) (human, UniProt P55085 37-377, limits assumed)
T1 construct: also called purified PAR2
T1 sequence: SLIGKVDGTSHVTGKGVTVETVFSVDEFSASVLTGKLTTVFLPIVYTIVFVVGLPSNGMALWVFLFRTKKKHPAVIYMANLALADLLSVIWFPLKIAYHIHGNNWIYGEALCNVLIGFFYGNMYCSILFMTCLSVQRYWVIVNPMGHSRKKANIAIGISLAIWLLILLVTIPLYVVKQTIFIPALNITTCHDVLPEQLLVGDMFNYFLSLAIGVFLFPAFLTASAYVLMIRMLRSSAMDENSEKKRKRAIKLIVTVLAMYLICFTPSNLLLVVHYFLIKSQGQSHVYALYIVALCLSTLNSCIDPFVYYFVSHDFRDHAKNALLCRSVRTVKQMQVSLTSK

T2: PAR2-3: P157: 1-377, glycosylated, pBacMamHisStrepII, full length (human, UniProt P55085 26-377)
T2 construct: detergent-solubilised analyte in SPR, or on infected cells in flow cytometry; also called FL-N PAR2 StaR; FL-N StaR; not shown: C-terminal StrepII and deca-histidine tags
T2 sequence: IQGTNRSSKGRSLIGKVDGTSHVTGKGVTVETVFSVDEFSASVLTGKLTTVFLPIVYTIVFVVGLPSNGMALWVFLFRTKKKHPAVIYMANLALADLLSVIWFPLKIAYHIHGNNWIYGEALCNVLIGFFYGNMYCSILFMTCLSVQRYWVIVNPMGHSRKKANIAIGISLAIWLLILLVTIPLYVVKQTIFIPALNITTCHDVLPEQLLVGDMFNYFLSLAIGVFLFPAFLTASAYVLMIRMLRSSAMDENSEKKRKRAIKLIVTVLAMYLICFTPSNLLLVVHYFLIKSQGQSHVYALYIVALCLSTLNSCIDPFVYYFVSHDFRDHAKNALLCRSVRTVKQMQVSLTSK

T3: Wildtype human PAR2 expressed on cells (human, UniProt P55085 37-397)
T3 sequence: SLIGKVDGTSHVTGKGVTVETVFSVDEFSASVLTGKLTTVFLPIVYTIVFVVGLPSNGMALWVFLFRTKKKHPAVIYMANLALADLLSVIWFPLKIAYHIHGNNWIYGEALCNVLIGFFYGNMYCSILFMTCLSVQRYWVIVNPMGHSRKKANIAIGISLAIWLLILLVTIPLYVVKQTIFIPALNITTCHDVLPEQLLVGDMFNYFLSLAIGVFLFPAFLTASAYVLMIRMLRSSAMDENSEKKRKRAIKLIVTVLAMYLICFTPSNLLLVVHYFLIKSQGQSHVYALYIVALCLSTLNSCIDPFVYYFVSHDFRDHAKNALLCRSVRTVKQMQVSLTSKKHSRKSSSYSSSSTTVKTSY


Legend:
[1] = molecular target: T1, Soluble PAR2 StaR (recombinant human …); test: SPR Biacore T200; IgG captured, PAR2 as analyte; 37 C, 30 min dissociation
Protocol: (§1) The assay of PAR2 interaction with anti-PAR2 antibodies was carried out using a Biacore T200 instrument (GE Healthcare). Anti-human IgG antibody (Human Antibody Capture Kit, GE Healthcare) was immobilised by amine coupling in the target and reference flow cells of sensor chip CM3 (GE Healthcare) to a surface density of 2700 to 3000 resonance units (RU). Immobilisation was carried out at 25° C. in HBS-EP+buffer (GE Healthcare). The buffer was then changed to 50 mM HEPES, pH 7.5, 150 mM NaCl, 0.02% LMNG, 0.002% CHS for the PAR2-antibody interaction assay which was carried out at either 25 or 37° C. Each cycle of the assay began with antibody capture in the target flow cell to a level of 400 to 450 RU. PAR2 was then injected over target and reference flow cells at three concentrations, 5 min each, followed by 30-min dissociation. The surface was then regenerated with a solution provided in the kit (Human Antibody Capture Kit, GE Healthcare). With every antibody tested the first cycle was a blank (three injections of the running buffer) and the second a series of 50, 100, and 200 nM PAR2 injections.

[2] = molecular target: T1, Soluble PAR2 StaR (recombinant human …); test: SPR Biacore T200; IgG captured, PAR2 as analyte; 25 C, 30 min dissociation
Protocol: as §1

[3] = molecular target: T2, PAR2-3: P157: 1-377, glycosylated, …; test: SPR (table head: Octet); IgG captured via Fc, FL-N PAR2 StaR as analyte; koff at the lower assay limit (minimum 2.00E-05 reported)
Protocol: (§2) For all eleven IgG1f_AEASS, affinities to human PAR2 were determined by SPR. The IgGs were captured via their Fc-fragment and detergent (LMNG/CHS) solubilised FL-N PAR2 StaR was used as analyte in solution. 50 mM HEPES pH 7.5, 150 mM NaCl, 0.02% LMNG was used as assay buffer. To minimize artefacts introduced by non-specific interaction of FL-N PAR2 StaR with the sensors, the CM3 sensors were used as basis to immobilize a high density of anti-hu-Fc capture antibody (BR-1008-39, GE Healthcare). IgGs were captured with relatively high levels of approximately 500 RU to achieve a higher ratio of specific to non-specific binding (while still maintaining conditions suitable for kinetic characterization). Affinities ranged from 6.5 nM to 130 pM. The koff values of the best candidates were at the lower assay limit. A minimum koff of 2.00E-05 s⁻¹ was reported (corresponding to 3% dissociation in 1500 s).

[4] = molecular target: T2, PAR2-3: P157: 1-377, glycosylated, …; test: SPR (table head: Octet); IgG captured via Fc, FL-N PAR2 StaR as analyte; koff at the lower assay limit
Protocol: as §2

[5] = molecular target: T3, Wildtype human PAR2 expressed on cells; test: cell-based or functional assay
[6] = molecular target: T2, PAR2-3: P157: 1-377, glycosylated, …; test: SPR (table head: Octet); IgG captured via Fc, detergent solubilised FL-N PAR2 StaR as analyte
Protocol: as §2

Rhesus PAR2 on cells = Rhesus PAR2 on cells (rhesus (Macaca mulatta)); test: cell-based or functional assay
[7] = molecular target: Cynomolgus PAR2 on BacMam-infected HEK293 cells (cynomolgus); test: cell-based or functional assay
[8] = molecular target: T3, Wildtype human PAR2 expressed on cells; test: cell-based or functional assay; remark: listed apart in the source

Kd [1] [nM] | koff [1] [s⁻¹] | kon [1] [M⁻¹ s⁻¹] | t½ [1] [h] | Kd [2] [nM] | koff [2] [s⁻¹] | kon [2] [M⁻¹ s⁻¹] | t½ [2] [h] | koff [3] [s⁻¹] | Kd [4] [nM] | % Max Inhibition, Bovine Trypsin challenge, IP-One [5] [%] | kon [6] [M⁻¹ s⁻¹] | IC50 (nM), SLIGKV agonist challenge, Rhesus (Rhesus PAR2 on cells) [nM] | IC50 (nM), SLIGKV agonist challenge, Cyno [7] [nM] | IC50 (nM), SLIGKV agonist challenge, Human [8] [nM] | Binder
0.45 | 1.9e-05 | 41000 | 10.3 | 0.43 | 1.2e-05 | 28000 | 16.1 | ≤ 2e-05 | ≤ 0.21 | 10 | 96000 | 50 | 88 | 61 | Y022870 (antibody, human IgG1, lambda, V domains shown, also called Y22870) VH: EVQLLESGGGLVQPGGSLRLSCAASGFSFSRYAITWVRQAPGKGLEWVSTISALGLETYYAESVRGRFTISRDNSKNTLYLQMNSLRAEDTAVYYCARGFHYTHSGKRYYYPFDIWGQGTLVTVSS VL: QSALTQPASVSGSPGQSITISCTGTSSDVGSYNLVSWYQQHPGKAPKLMIYEGSKRPSGVSNRFSGSKSGNTASLTISGLQAEDEADYYCSQYATFIAFAVFGGGTKLTVLG
0.55 | 1.7e-05 | 31000 | 11.5 | 0.23 | 5.1e-06 | 22000 | 37.9 | 2e-05 | 0.29 | 58 | 68000 | 47 | 74 | 52 | Y022877 (antibody, human IgG1, lambda, V domains shown, also called Y22877) VH: EVQLLESGGGLVQPGGSLRLSCAASGFTFSRYAMTWVRQAPGKGLEWVSTISGLGQEAYYAGSVKGRFTISRDNSKNTLYLQMNSLRAEDTAVYYCARGFHYTHSGKRYYYPFDIWGQGTLVTVSS VL: QSALTQPASVSGSPGQSITISCTGTSSDVGSYNLVSWYQQHPGKAPKLMIYEGSKRPSGVSNRFSGSKSGNTASLTISGLQAEDEADYYCSQYATFIAFAVFGGGTKLTVLG
0.65 | 2.3e-05 | 36000 | 8.3 | 0.2 | 8.1e-06 | 40000 | 23.7 | 2e-05 | 0.14 | 48 | 140000 | 43 | 68 | 54 | Y022883 (antibody, human IgG1, lambda, V domains shown, also called Y22883; Y02283) VH: EVQLLESGGGLVQPGGSLRLSCAASGFSFTRYAISWVRQAPGKGLEWVSVISGHGSEANYAESVKGRFTISRDNSKNTLYLQMNSLRAEDTAVYYCARGFHYTHSGKRYYYPFDIWGQGTLVTVSS VL: QSALTQPASVSGSPGQSITISCTGTSSDVGSYNLVSWYQQHPGKAPKLMIYEGSKRPSGVSNRFSGSKSGNTASLTISGLQAEDEADYYCSQYATFIAFAVFGGGTKLTVLG
